Ho/Con_2aH and He/Con_2aH data for 50 molecules are collected here from patent US20150344570A1 (published 2015).

The labels stand for the following.
B1: GpH7-B3 variant I332_09D/GpL16-k0 (antibody, human IgG1, kappa)
heavy: not shown
light: DIVMTQSPLSLPVTPGEPASISCQASESLVHSNRNTYLHWYLQKPGQSPQLLIYKVSNRFSGVPDRFSGSGSGTDFTLKISRVEAEDVGVYYCSQNTHVPPTFGQGTKVEIERTVAAPSVFIFPPSDEQLKSGTASVVCLLNNFYPREAKVQWKVDNALQSGNSQESVTEQDSKDSTYSLSSTLTLSKADYEKHKVYACEVTHQGLSSPVTKSFNRGEC
notes: both H chains mutated; also called Ho Ab
B2: GpH7-B3 variant L328_14T/GpL16-k0 (antibody, human IgG1, kappa)
heavy: not shown
light: B1 light
notes: as for B1
B3: GpH7-B3 variant S337_14T/GpL16-k0 (antibody, human IgG1, kappa)
heavy: not shown
light: B1 light
notes: as for B1
B4: GpH7-B3 variant T335_19Q/GpL16-k0 (antibody, human IgG1, kappa)
heavy: not shown
light: B1 light
notes: as for B1
B5: GpH7-B3 variant K334_07[ (read as K334_07I)/GpL16-k0 (antibody, human IgG1, kappa)
heavy: not shown
light: B1 light
notes: as for B1
B6: GpH7-B3 variant S324_06M/GpL16-k0 (antibody, human IgG1, kappa)
heavy: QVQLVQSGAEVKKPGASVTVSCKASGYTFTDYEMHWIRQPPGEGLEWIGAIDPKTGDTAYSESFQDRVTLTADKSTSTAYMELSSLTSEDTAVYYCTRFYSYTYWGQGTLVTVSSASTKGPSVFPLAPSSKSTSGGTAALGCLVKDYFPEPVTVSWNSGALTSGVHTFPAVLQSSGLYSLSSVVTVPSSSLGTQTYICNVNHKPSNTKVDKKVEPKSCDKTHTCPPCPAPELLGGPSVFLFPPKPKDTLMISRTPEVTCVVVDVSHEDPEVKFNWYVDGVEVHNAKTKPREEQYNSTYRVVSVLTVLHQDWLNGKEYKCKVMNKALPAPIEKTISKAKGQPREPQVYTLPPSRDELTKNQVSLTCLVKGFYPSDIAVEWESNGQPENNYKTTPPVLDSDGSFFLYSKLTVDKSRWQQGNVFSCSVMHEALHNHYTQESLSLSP
light: B1 light
notes: as for B1
B7: GpH7-B3 variant T335_15Y/GpL16-k0 (antibody, human IgG1, kappa)
heavy: not shown
light: B1 light
notes: as for B1
B8: GpH7-B3 variant K326_19Q/GpL16-k0 (antibody, human IgG1, kappa)
heavy: not shown
light: B1 light
notes: as for B1
B9: GpH7-B3 variant S337_10E/GpL16-k0 (antibody, human IgG1, kappa)
heavy: not shown
light: B1 light
notes: as for B1
B10: GpH7-B3 variant P271_01G/GpL16-k0 (antibody, human IgG1, kappa)
heavy: not shown
light: B1 light
notes: as for B1
B11: GpH7-B3 variant K326_14T/GpL16-k0 (antibody, human IgG1, kappa)
heavy: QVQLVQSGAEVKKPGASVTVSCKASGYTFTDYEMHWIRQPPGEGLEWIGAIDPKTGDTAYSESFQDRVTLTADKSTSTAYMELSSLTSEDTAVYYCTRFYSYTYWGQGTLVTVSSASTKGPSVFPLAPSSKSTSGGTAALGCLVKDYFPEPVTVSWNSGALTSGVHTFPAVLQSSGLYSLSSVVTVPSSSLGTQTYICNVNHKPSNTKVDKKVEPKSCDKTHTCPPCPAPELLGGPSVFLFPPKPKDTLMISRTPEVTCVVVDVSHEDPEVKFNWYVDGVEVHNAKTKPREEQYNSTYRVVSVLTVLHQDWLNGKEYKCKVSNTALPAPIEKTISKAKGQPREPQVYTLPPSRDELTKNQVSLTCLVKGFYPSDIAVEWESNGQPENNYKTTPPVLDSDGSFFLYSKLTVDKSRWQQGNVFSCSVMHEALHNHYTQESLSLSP
light: B1 light
notes: as for B1
B12: GpH7-B3 variant L328_06M/GpL16-k0 (antibody, human IgG1, kappa)
heavy: not shown
light: B1 light
notes: as for B1
B13: GpH7-B3 variant K326_06M/GpL16-k0 (antibody, human IgG1, kappa)
heavy: not shown
light: B1 light
notes: as for B1
B14: GpH7-B3 variant I332_18N/GpL16-k0 (antibody, human IgG1, kappa)
heavy: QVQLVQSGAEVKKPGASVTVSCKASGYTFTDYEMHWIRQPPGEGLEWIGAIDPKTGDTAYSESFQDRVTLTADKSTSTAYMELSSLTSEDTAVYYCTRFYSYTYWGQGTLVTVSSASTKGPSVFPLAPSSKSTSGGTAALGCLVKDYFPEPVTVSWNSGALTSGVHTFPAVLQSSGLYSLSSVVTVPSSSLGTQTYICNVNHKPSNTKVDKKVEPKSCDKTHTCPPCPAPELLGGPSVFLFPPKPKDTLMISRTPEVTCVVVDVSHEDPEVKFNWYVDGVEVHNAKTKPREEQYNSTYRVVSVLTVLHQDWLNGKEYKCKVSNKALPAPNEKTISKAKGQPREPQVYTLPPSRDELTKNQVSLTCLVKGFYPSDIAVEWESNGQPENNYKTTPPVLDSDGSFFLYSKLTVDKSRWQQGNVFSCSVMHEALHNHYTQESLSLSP
light: B1 light
notes: as for B1
B15: GpH7-B3 variant T335_01G/GpL16-k0 (antibody, human IgG1, kappa)
heavy: not shown
light: B1 light
notes: as for B1
B16: GpH7-B3 variant S267_02A/GpL16-k0 (antibody, human IgG1, kappa)
heavy: not shown
light: B1 light
notes: as for B1
B17: GpH7-B3 variant T335_13S/GpL16-k0 (antibody, human IgG1, kappa)
heavy: not shown
light: B1 light
notes: as for B1
B18: GpH7-B3 variant S324_10E/GpL16-k0 (antibody, human IgG1, kappa)
heavy: not shown
light: B1 light
notes: as for B1
B19: GpH7-B3 variant S239_09D/GpL16-k0 (antibody, human IgG1, kappa)
heavy: not shown
light: B1 light
notes: as for B1
B20: GpH7-B3 variant K334_04F/GpL16-k0 (antibody, human IgG1, kappa)
heavy: not shown
light: B1 light
notes: as for B1
B21: GpH7-B3 variant K334_16H/GpL16-k0 (antibody, human IgG1, kappa)
heavy: not shown
light: B1 light
notes: as for B1
B22: GpH7-B3 variant K326_09D/GpL16-k0 (antibody, human IgG1, kappa)
heavy: not shown
light: B1 light
notes: as for B1
B23: GpH7-B3 variant S337_16H/GpL16-k0 (antibody, human IgG1, kappa)
heavy: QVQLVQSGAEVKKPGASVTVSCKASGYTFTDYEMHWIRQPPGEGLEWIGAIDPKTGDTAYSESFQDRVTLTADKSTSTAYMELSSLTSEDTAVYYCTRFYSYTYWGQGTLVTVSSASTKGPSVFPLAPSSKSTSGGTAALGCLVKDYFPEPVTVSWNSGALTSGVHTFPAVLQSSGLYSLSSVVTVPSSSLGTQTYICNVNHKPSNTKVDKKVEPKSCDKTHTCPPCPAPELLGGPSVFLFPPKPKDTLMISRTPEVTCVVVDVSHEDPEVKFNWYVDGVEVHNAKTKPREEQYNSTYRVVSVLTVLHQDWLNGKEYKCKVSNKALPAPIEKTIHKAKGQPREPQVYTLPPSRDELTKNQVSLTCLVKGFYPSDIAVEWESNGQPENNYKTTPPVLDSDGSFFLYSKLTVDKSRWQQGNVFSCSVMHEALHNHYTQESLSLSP
light: B1 light
notes: as for B1
B24: GpH7-B3 variant S324_20W/GpL16-k0 (antibody, human IgG1, kappa)
heavy: not shown
light: B1 light
notes: as for B1
B25: GpH7-B3 variant S324_02A/GpL16-k0 (antibody, human IgG1, kappa)
heavy: not shown
light: B1 light
notes: as for B1
B26: GpH7-B3 variant S324_09D/GpL16-k0 (antibody, human IgG1, kappa)
heavy: not shown
light: B1 light
notes: as for B1
B27: GpH7-B3 variant I332_16H/GpL16-k0 (antibody, human IgG1, kappa)
heavy: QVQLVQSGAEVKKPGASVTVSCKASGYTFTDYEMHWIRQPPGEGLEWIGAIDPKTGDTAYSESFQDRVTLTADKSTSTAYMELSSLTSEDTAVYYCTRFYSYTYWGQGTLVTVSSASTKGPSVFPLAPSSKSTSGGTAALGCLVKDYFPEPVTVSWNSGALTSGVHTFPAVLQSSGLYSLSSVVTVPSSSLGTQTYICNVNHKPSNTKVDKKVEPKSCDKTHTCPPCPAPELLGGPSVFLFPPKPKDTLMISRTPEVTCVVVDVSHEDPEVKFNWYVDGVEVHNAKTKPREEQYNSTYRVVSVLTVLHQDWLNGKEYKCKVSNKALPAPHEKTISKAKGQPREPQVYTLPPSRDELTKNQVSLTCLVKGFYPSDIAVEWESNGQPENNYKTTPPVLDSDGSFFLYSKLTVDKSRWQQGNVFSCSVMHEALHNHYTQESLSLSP
light: B1 light
notes: as for B1
B28: GpH7-B3 variant T335_16H/GpL16-k0 (antibody, human IgG1, kappa)
heavy: not shown
light: B1 light
notes: as for B1
B29: GpH7-B3 variant I332_15Y/GpL16-k0 (antibody, human IgG1, kappa)
heavy: not shown
light: B1 light
notes: as for B1
B30: GpH7-B3 variant I332_13S/GpL16-k0 (antibody, human IgG1, kappa)
heavy: not shown
light: B1 light
notes: as for B1
B31: GpH7-B3 variant L328_02A/GpL16-k0 (antibody, human IgG1, kappa)
heavy: not shown
light: B1 light
notes: as for B1
B32: GpH7-B3 variant I336_06M/GpL16-k0 (antibody, human IgG1, kappa)
heavy: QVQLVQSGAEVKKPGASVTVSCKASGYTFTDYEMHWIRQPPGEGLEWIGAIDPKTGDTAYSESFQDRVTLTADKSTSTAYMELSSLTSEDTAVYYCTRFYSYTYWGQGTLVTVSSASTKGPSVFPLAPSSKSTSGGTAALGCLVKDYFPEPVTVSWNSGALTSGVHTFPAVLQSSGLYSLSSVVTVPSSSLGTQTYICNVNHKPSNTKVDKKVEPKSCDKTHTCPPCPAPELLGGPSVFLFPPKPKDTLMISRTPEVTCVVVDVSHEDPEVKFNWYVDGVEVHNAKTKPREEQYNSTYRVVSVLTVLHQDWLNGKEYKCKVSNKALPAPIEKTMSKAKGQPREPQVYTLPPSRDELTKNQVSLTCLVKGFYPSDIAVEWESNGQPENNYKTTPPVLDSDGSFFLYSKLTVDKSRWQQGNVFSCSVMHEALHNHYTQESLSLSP
light: B1 light
notes: as for B1
B33: GpH7-B3 variant Q295_07I/GpL16-k0 (antibody, human IgG1, kappa)
heavy: not shown
light: B1 light
notes: as for B1
B34: GpH7-B3 variant T335_07I/GpL16-k0 (antibody, human IgG1, kappa)
heavy: not shown
light: B1 light
notes: as for B1
B35: GpH7-B3 variant L328_13S/GpL16-k0 (antibody, human IgG1, kappa)
heavy: not shown
light: B1 light
notes: as for B1
B36: GpH7-B3 variant L235_20W/GpL16-k0 (antibody, human IgG1, kappa)
heavy: not shown
light: B1 light
notes: as for B1
B37: GpH7-B3 variant K334_03V/GpL16-k0 (antibody, human IgG1, kappa)
heavy: not shown
light: B1 light
notes: as for B1
B38: GpH7-B3 variant I336_08L/GpL16-k0 (antibody, human IgG1, kappa)
heavy: not shown
light: B1 light
notes: as for B1
B39: GpH7-B3 variant K326_10E/GpL16-k0 (antibody, human IgG1, kappa)
heavy: not shown
light: B1 light
notes: as for B1
B40: GpH7-B3 variant I332_19Q/GpL16-k0 (antibody, human IgG1, kappa)
heavy: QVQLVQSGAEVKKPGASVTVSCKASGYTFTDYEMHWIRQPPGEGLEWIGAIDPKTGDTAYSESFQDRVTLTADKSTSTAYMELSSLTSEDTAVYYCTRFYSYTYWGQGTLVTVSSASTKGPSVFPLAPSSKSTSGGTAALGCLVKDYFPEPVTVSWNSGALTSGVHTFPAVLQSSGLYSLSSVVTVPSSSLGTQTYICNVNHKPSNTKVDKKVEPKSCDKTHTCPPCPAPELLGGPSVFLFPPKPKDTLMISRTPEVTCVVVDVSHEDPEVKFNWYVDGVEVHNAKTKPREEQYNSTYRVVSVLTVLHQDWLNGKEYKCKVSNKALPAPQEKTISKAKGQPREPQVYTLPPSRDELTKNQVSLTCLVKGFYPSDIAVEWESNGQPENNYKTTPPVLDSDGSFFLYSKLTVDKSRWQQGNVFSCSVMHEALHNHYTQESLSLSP
light: B1 light
notes: as for B1
B41: GpH7-B3 variant I332_10E/GpL16-k0 (antibody, human IgG1, kappa)
heavy: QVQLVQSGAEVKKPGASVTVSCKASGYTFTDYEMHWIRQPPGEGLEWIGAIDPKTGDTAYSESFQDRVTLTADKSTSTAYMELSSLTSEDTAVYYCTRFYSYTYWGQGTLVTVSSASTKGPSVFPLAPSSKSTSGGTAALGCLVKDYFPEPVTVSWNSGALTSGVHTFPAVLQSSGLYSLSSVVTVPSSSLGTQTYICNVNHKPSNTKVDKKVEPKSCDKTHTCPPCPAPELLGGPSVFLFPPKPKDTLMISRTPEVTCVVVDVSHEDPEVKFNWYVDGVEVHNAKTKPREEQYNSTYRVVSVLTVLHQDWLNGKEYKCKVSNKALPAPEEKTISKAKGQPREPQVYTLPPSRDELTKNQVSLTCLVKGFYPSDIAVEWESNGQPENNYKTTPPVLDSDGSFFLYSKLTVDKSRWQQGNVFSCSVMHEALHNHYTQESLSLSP
light: B1 light
notes: as for B1
B42: GpH7-B3 variant T335_10E/GpL16-k0 (antibody, human IgG1, kappa)
heavy: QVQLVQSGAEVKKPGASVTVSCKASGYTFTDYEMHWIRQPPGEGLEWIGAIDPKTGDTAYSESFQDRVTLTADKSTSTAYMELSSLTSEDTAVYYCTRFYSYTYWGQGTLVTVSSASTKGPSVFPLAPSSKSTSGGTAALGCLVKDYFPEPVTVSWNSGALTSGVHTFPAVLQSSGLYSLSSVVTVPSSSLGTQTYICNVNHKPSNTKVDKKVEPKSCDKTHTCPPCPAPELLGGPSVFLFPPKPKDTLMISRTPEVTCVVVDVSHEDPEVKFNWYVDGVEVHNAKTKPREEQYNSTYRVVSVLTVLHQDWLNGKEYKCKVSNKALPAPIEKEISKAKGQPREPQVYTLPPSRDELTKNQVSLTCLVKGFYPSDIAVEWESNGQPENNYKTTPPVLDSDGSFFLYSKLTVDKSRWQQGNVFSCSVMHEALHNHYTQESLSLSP
light: B1 light
notes: as for B1
B43: GpH7-B3 variant K334_15Y/GpL16-k0 (antibody, human IgG1, kappa)
heavy: not shown
light: B1 light
notes: as for B1
B44: GpH7-B3 variant Q295_05P/GpL16-k0 (antibody, human IgG1, kappa)
heavy: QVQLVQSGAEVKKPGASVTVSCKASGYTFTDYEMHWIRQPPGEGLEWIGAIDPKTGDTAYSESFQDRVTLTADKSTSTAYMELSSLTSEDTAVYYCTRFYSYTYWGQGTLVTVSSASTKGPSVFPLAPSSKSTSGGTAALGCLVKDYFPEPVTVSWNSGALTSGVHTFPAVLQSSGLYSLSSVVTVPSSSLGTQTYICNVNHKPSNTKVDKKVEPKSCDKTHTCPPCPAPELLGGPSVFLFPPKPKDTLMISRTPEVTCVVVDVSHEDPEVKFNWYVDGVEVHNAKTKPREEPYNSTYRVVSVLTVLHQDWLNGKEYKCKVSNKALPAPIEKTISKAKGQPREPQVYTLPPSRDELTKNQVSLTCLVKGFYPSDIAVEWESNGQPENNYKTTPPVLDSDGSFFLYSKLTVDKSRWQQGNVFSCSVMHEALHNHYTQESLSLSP
light: B1 light
notes: as for B1
B45: GpH7-B3 variant K334_08L/GpL16-k0 (antibody, human IgG1, kappa)
heavy: not shown
light: B1 light
notes: as for B1
B46: GpH7-B3 variant S337_09D/GpL16-k0 (antibody, human IgG1, kappa)
heavy: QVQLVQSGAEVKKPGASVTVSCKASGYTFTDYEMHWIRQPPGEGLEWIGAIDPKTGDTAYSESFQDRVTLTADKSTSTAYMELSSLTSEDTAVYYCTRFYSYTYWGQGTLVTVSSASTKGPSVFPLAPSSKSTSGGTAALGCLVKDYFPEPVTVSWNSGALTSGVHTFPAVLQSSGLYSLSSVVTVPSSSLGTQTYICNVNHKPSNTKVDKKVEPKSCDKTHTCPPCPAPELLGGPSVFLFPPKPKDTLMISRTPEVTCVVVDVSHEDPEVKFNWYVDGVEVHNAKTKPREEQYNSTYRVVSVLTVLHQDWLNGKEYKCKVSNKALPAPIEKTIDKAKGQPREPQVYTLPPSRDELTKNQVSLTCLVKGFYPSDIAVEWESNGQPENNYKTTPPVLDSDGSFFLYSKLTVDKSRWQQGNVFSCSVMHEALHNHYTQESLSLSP
light: B1 light
notes: as for B1
B47: GpH7-B3 variant K334_14T/GpL16-k0 (antibody, human IgG1, kappa)
heavy: not shown
light: B1 light
notes: as for B1
B48: GpH7-B3 variant I332_14T/GpL16-k0 (antibody, human IgG1, kappa)
heavy: not shown
light: B1 light
notes: as for B1
B49: GpH7-A5/GpH7-B3 variant I332_02A/GpL16-k0 (antibody, human IgG1, kappa)
heavy 1: not shown
heavy 2: not shown
light: B1 light
notes: one H chain mutated; also called He Ab
B50: GpH7-A5/GpH7-B3 variant A330_12R/GpL16-k0 (antibody, human IgG1, kappa)
heavy 1: not shown
heavy 2: not shown
light: B1 light
notes: as for B49

One experiment addresses T1, FcγRIIa H (FcγRIIa type H, His at position 131), extracellular domain with C-terminal His tag (human, UniProt P12318 34-217).
T1 construct: extracellular domain; also called FcgRIIa H; 2aH
T1 sequence (looked up): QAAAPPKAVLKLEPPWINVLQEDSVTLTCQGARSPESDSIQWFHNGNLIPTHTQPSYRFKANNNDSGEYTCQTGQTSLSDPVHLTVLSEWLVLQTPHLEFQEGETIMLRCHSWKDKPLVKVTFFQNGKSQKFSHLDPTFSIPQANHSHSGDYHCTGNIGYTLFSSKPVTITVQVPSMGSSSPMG
In words: SPR Biacore, relative binding, GpH7-B3/GpL16-k0 (HoCon Ab)=100. Here is the method:
(§1) Analysis of interaction between objective antibody and the FcγR was carried out using Biacore T100 (GE Healthcare). HBS-EP+ (GE Healthcare) was used as the running buffer, and the measurement temperature was set to 25° C. Chips produced by immobilizing the antigen peptide by the amine coupling method to a Series S Sencor Chip CM5 (GE Healthcare), or alternatively, chips produced by allowing preliminarily biotinylated antigen peptides to interact with and immobilize onto a Series S Sensor Chip SA (certified) (GE Healthcare) were used. Antibodies of interest were captured onto an antigen peptide-immobilized chip, and allowed to interact to each FcγR diluted with running buffer. To regenerate and repeatedly use the chip, the antibodies captured on the chip were washed off by reacting 10 mM glycine-HCl, pH 1.5.
Consider B1, for which the Ho/Con_2aH was 130 % of control.

As to B2, the Ho/Con_2aH is 110 % of control.

In the case of B3, the Ho/Con_2aH was 105 % of control.

For the molecule B4, the Ho/Con_2aH is 103 % of control.

As to B5, the Ho/Con_2aH was 116 % of control.

For B6, the Ho/Con_2aH is 123 % of control.

In the case of B7, the Ho/Con_2aH was 102 % of control.

In the case of B8, the Ho/Con_2aH was 100 % of control.

In the case of B9, the Ho/Con_2aH was 101 % of control.

With B10, the Ho/Con_2aH was 110 % of control.

B11: the Ho/Con_2aH was 118 % of control.

As to B12, the Ho/Con_2aH is 100 % of control.

On to B13, for which the Ho/Con_2aH is 101 % of control.

As for B14, the Ho/Con_2aH is 118 % of control.

For B15, the Ho/Con_2aH was 101 % of control.

Regarding B16, the Ho/Con_2aH is 120 % of control.

For B17, the Ho/Con_2aH is 101 % of control.

As for B18, the Ho/Con_2aH is 104 % of control.

On to B19, for which the Ho/Con_2aH was 112 % of control.

Turning to B20, the Ho/Con_2aH was 103 % of control.

Consider B21, for which the Ho/Con_2aH is 101 % of control.

Take B22: the Ho/Con_2aH was 113 % of control.

On to B23, for which the Ho/Con_2aH was 102 % of control.

B24: the Ho/Con_2aH is 108 % of control.

Take B25: the Ho/Con_2aH is 102 % of control.

On to B26, for which the Ho/Con_2aH is 113 % of control.

For the molecule B27, the Ho/Con_2aH is 119 % of control.

For B28, the Ho/Con_2aH was 100 % of control.

For B29, the Ho/Con_2aH was 126 % of control.

On to B30, for which the Ho/Con_2aH was 121 % of control.

With B31, the Ho/Con_2aH was 134 % of control.

As for B32, the Ho/Con_2aH was 100 % of control.

For the molecule B33, the Ho/Con_2aH was 108 % of control.

For the molecule B34, the Ho/Con_2aH was 105 % of control.

For the molecule B35, the Ho/Con_2aH is 131 % of control.

Regarding B36, the Ho/Con_2aH is 112 % of control.

As to B37, the Ho/Con_2aH is 111 % of control.

For B38, the Ho/Con_2aH is 101 % of control.

For B39, the Ho/Con_2aH is 101 % of control.

Take B40: the Ho/Con_2aH was 114 % of control.

Take B41: the Ho/Con_2aH was 117 % of control.

In the case of B42, the Ho/Con_2aH is 105 % of control.

Regarding B43, the Ho/Con_2aH was 110 % of control.

Turning to B44, the Ho/Con_2aH was 106 % of control.

On to B45, for which the Ho/Con_2aH is 103 % of control.

B46: the Ho/Con_2aH was 107 % of control.

For B47, the Ho/Con_2aH was 105 % of control.

On to B48, for which the Ho/Con_2aH was 125 % of control.

For a further experiment, the target named is T1, FcγRIIa H (FcγRIIa type H, His at …). In words: SPR Biacore, relative binding, GpH7-A5/GpH7-B3/GpL16-k0 (HeCon Ab)=100. Here is the method:
as §1
Background: SPR reads the build-up and loss of mass on a sensor chip optically.
B49: the He/Con_2aH is 111 % of control.

For the molecule B50, the He/Con_2aH is 108 % of control.
